Assay results from paper PMC6527160.

Legend:
[1] = molecular target: T1, LASV L protein Strep407 (Lassa virus Bantou 289, UniProt A0A3S8NV63 1-2217); assay: EMSA; […]) pH 7.0, 150 mM NaCl ([…]; details: protein: recombinant; tags: internal StrepII-tag inserted after residue 407; chain copies: 2; label: 32P (5' end, T4 PNK); single strand
[2] = molecular target: T1, LASV L protein Strep407; assay: EMSA; 0-1 uM L, 0.6 uM RNA; 4 mM Mg2+; […]) pH 7.0, 150 mM NaCl ([…]; details: protein: recombinant; tags: internal StrepII-tag inserted after residue 407; chain copies: 2; label: 32P (5' end, T4 PNK); single strand

B1: vRNA 5'G (ssRNA)
RNA: GCGCACCGGGGAUCCUAGGC
B1: binds [1].

B2: vRNA 5' (ssRNA)
RNA: CGCACCGGGGAUCCUAGGC
B2: binds [2].
